What is called Kd is the free concentration of one partner at which half of the binding sites on the other are occupied at equilibrium, for simple one-to-one binding. One may read the stoichiometry N as the number of molecules, sites or subunits per partner or assembly.

Changes are numbered by the printed parent chain. In names and notes the source's numbering stands.

Consider four molecules from paper PMC8514580, “Insight into the interaction between the RNA helicase CGH-1 and EDC-3 and its implications” (Scientific Reports, 2021).

The target in test [1] is CAR-1 184-214 (Caenorhabditis elegans) (UniProt Q9XW17). The test is described as follows: ITC. The note with it: cited from earlier work.
The target of another test is T1, CGH-1_(248–420) Q266A (C. elegans, UniProt Q95YF3 248-420, Q266A).
T1 construct: Mutant of m1 made with the MutanBEST kit; source: E. coli Gold (DE3), purified (Ni-chelating resin, SEC Superdex 75)
T1 sequence (looked up): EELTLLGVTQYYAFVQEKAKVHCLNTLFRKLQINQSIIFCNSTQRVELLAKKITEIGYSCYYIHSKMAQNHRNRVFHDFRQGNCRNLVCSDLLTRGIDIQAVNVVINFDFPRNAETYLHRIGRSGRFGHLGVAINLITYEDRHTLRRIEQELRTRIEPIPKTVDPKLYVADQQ
The test is described as follows: ITC; ligand (peptide or CAR-1 fragment, 0.5 mM) injected into CGH-1_(248-420) or mutant (0.05 mM) in the cell; 20 °C; Buffer B (20 mM Tris-HCl pH 7.5, 150 mM NaCl); one-binding-site model. Conditions: both partners purified.

In a further test the target is T2, CGH-1_(248–420) F261A (C. elegans, UniProt Q95YF3 248-420, F261A).
T2 construct: Mutant of m1 made with the MutanBEST kit; source: E. coli Gold (DE3), purified (Ni-chelating resin, SEC Superdex 75)
T2 sequence (looked up): T1 sequence (looked up) with F14A, A19Q
Described as above. Conditions: both partners purified.

The target of another test is T3, CGH-1_(248–420) K277A (C. elegans, UniProt Q95YF3 248-420, K277A).
T3 construct: Mutant of m1 made with the MutanBEST kit; source: E. coli Gold (DE3), purified (Ni-chelating resin, SEC Superdex 75)
T3 sequence (looked up): T1 sequence (looked up) with A19Q, K30A
The description is as above. Conditions: both partners purified.

A further test has as its target T4, CGH-1_(248–420) R393A (C. elegans, UniProt Q95YF3 248-420, R393A).
T4 construct: Mutant of m1 made with the MutanBEST kit; source: E. coli Gold (DE3), purified (Ni-chelating resin, SEC Superdex 75)
T4 sequence (looked up): T1 sequence (looked up) with A19Q, R146A
The test is described as above. The note with it: both partners purified.

Another test concerns the target T5, CGH-1_(248–420) H269A (C. elegans, UniProt Q95YF3 248-420, H269A).
T5 construct: Mutant of m1 made with the MutanBEST kit; source: E. coli Gold (DE3), purified (Ni-chelating resin, SEC Superdex 75)
T5 sequence (looked up): T1 sequence (looked up) with A19Q, H22A
The description is as above. The note with it: both partners purified.

The target in test [2] is T6, CGH-1_(248–420) 4A mutant (His269, Cys270, Thr273 and Leu274 to Ala) (C. elegans, UniProt Q95YF3 248-420, His269 to Ala | Cys270 to Ala | Thr273 to Ala | Leu274 to Ala).
T6 construct: Mutant of m1 made with the MutanBEST kit; also called four-alanine mutant; source: E. coli Gold (DE3), purified (Ni-chelating resin, SEC Superdex 75)
T6 sequence (looked up): T1 sequence (looked up) with A19Q, H22A, C23A, T26A, L27A
The test is described as above. The note with it: both partners purified.

Test [3] concerns the target T7, CGH-1_(248–420) wild type (CGH-1 RecA2 domain) (C. elegans, UniProt Q95YF3 248-420).
T7 construct: Cloned into NdeI/XhoI of a modified pET-28a in which the thrombin cleavage site was removed; also called CGH-1_248-420^WT; source: E. coli Gold (DE3), purified (Ni-chelating resin, SEC Superdex 75)
T7 sequence (looked up): T1 sequence (looked up) with A19Q
The test is described as above. Conditions: both partners purified.

A further test addresses T8, CGH-1_(248–420) E396A (C. elegans, UniProt Q95YF3 248-420, E396A).
T8 construct: Mutant of m1 made with the MutanBEST kit; source: E. coli Gold (DE3), purified (Ni-chelating resin, SEC Superdex 75)
T8 sequence (looked up): T1 sequence (looked up) with A19Q, E149A
The test is described as above. Conditions: both partners purified.

The target of another test is T9, CGH-1_(248–420) K277E (C. elegans, UniProt Q95YF3 248-420, K277E).
T9 construct: Mutant of m1 made with the MutanBEST kit; source: E. coli Gold (DE3), purified (Ni-chelating resin, SEC Superdex 75)
T9 sequence (looked up): T1 sequence (looked up) with A19Q, K30E
The test is described as above. The note with it: both partners purified.

The test system of another test is human HA-tagged DDX6. Conditions: Co-immunoprecipitation, YFP-tagged PATL1 mutants; cited from earlier work.

Take CGH-1 248-420 (from UniProt Q95YF3): in [1], the dissociation constant (Kd) is 43 µM.

B1: EDC-3 FDF peptide (EDC-3_(235–271)) (peptide)
peptide: LADPIDFDLDSDFDFAENLKLFEKDENDDQYYETVEK
notes: Enhancer of decapping-3 (EDC-3, also called LSm16), C. elegans, FDF fragment, residues 235-271; Printed with free NH2 and COOH ends; also called EDC-3 peptide; EDC-3 FDF-FEK peptide; source: synthetic peptide (GL Biochem, Shanghai)
With B1, the Kd with CGH-1_(248–420) Q266A is 1750 ± 380 nM; with CGH-1_(248–420) F261A, 1160 ± 240 nM; with CGH-1_(248–420) K277A, 2740 ± 340 nM; in the test with CGH-1_(248–420) R393A, 2070 ± 280 nM; in the test with CGH-1_(248–420) H269A, 2550 ± 320 nM; in test [2], 8.75 ± 3.64 µM. Besides, the Kd with CGH-1_(248–420) E396A came out at 850 ± 110 nM; with CGH-1_(248–420) K277E it was 5.97 ± 0.51 µM. Further, the dH with CGH-1_(248–420) Q266A is -12.1 ± 0.51 kcal per mol; with CGH-1_(248–420) F261A, -14.1 ± 0.48 kcal per mol; with CGH-1_(248–420) K277A, -15.2 ± 0.47 kcal per mol; with CGH-1_(248–420) R393A, -17.3 ± 0.47 kcal per mol; with CGH-1_(248–420) H269A it was -12.5 ± 0.34 kcal per mol; in test [2], -5.94 ± 0.89 kcal per mol. In addition, the dH in test [3] is -17.6 ± 0.09 kcal per mol; in the test with CGH-1_(248–420) E396A, -16.1 ± 0.31 kcal per mol; in the test with CGH-1_(248–420) K277E, -11.5 ± 0.3 kcal per mol. Besides, the “stoichiometry N” value with CGH-1_(248–420) Q266A amounted to 1.1; with CGH-1_(248–420) F261A it was 1.09; in the test with CGH-1_(248–420) K277A it was 1.22; with CGH-1_(248–420) R393A, 0.99; in the test with CGH-1_(248–420) H269A, 1.03; in test [2], 0.79. Also, the “stoichiometry N” value in test [3] came to 1.07; with CGH-1_(248–420) E396A, 1; in the test with CGH-1_(248–420) K277E, 1.12.

B2: YFP-tagged PATL1 W46A: substitution of Trp46 to Ala in the YFP-tagged PATL1 (protein, UniProt Q86TB9 1-770, looked up, variant W46A)
Protein PAT1 homolog 1: MFRYESLEDCPLDEDEDAFQGLGEEDEEIDQFNDDTFGSGAVDDDAQEAHERLAELEEKLPVAVNEQTGNGERDEMDLLGDHEENLAERLSKMVIENELEDPAIMRAVQTRPVLQPQPGSLNSSIWDGSEVLRRIRGPLLAQEMPTVSVLEYALPQRPPQGPEDDRDLSERALPRRSTSPIIGSPPVRAVPIGTPPKQMAVPSFTQQILCPKPVHVRPPMPPRYPAPYGERMSPNQLCSVPNSSLLGHPFPPSVPPVLSPLQRAQLLGGAQLQPGRMSPSQFARVPGFVGSPLAAMNPKLLQGRVGQMLPPAPGFRAFFSAPPSATPPPQQHPPGPGPHLQNLRSQAPMFRPDTTHLHPQHRRLLHQRQQQNRSQHRNLNGAGDRGSHRSSHQDHLRKDPYANLMLQREKDWVSKIQMMQLQSTDPYLDDFYYQNYFEKLEKLSAAEEIQGDGPKKERTKLITPQVAKLEHAYKPVQFEGSLGKLTVSSVNNPRKMIDAVVTSRSEDDETKEKQVRDKRRKTLVIIEKTYSLLLDVEDYERRYLLSLEEERPALMDDRKHKICSMYDNLRGKLPGQERPSDDHFVQIMCIRKGKRMVARILPFLSTEQAADILMTTARNLPFLIKKDAQDEVLPCLLSPFSLLLYHLPSVSITSLLRQLMNLPQSAATPALSNPHLTAVLQNKFGLSLLLILLSRGEDLQSSDPATESTQNNQWTEVMFMATRELLRIPQAALAKPISIPTNLVSLFSRYVDRQKLNLLETKLQLVQGIR
modifications: YFP tag
B2: in the test with human HA-tagged DDX6, the “interaction with DDX6” value is reported as “impaired the interaction”.

B3: YFP-tagged PATL1 W46D: substitution of Trp46 to Asp in the YFP-tagged PATL1 (protein, UniProt Q86TB9 1-770, looked up, variant W46D)
Protein PAT1 homolog 1: B2 Protein PAT1 homolog 1 with A46D
modifications: YFP tag
Turning to B3, the “interaction with DDX6” value in the test with human HA-tagged DDX6 is recorded as “impaired the interaction”.
